Biological target: HA-SOK-1 (human)

SOK-1 kinase activity: 40%
Substance: catalytic subunit of protein phosphatase 2A (enzyme)
